Laboratory results from US20260070987A1.
Residue numbers refer to the chain shown, from its start. In names and notes the source's numbering stands.

B1: equine IgG4 WT (antibody, part only; not given: Variable domains; allotype unconfirmed, not shown: another chain or arm of the molecule)
constant: ASTTAPKVFPLASHSAATSGSTVALGCLVSSYFPEPVTVSWNSGALTSGVHTFPSVLQSSGLYSLSSMVTVPASSLKSQTYICNVAHPASSTKVDKKIVIKECNGGCPAECLQVGPSVFIFPPKPKDVLMISRTPTVTCVVVDVGHDFPDVQFNWYVDGVETHTATTEPKQEQFNSTYRVVSVLPIQHKDWLSGKEFKCKVNNKALPAPVERTISKPTGQPREPQVYVLAPHRDELSKNKVSVTCLVKDFYPTDIDIEWKSNGQPEPETKYSTTPAQLDSDGSYFLYSKLTVETNRWQQGTTFTCAVMHEALHNHYTEKSVSKSPGK
B2: equine IgG4 K311L (antibody, part only; not given: Variable domains, not shown: another chain or arm of the molecule)
constant: B1 constant with K189L
B3: equine IgG4 K311G (antibody, part only; not given: variable domains, not shown: another chain or arm of the molecule; small tags and cut ends)
constant: B1 constant with K189G
B4: equine IgG4 K311S (antibody, part only; not given: variable domains, not shown: another chain or arm of the molecule)
constant: B1 constant with K189S
B5: equine IgG4 K311T (antibody, part only; not given: variable domains, not shown: another chain or arm of the molecule)
constant: B1 constant with K189T
B6: equine IgG4 K311P (antibody, part only; not given: Variable domains, not shown: another chain or arm of the molecule)
constant: B1 constant with K189P
B7: equine IgG4 K311Q (antibody, part only; not given: variable domains, not shown: another chain or arm of the molecule)
constant: B1 constant with K189Q
B8: equine IgG4 K311D (antibody, part only; not given: variable domains, not shown: another chain or arm of the molecule; small tags and cut ends)
constant: B1 constant with K189D
B9: equine IgG4 K311R (antibody, part only; not given: variable domains, not shown: another chain or arm of the molecule)
constant: B1 constant with K189R
B10: equine IgG4 K311N (antibody, part only; not given: variable domains, not shown: another chain or arm of the molecule)
constant: B1 constant with K189N
B11: equine IgG4 K311I (antibody, part only; not given: variable domains, not shown: another chain or arm of the molecule; small tags and cut ends)
constant: B1 constant with K189I
B12: equine IgG4 K311H (antibody, part only; not given: variable domains, not shown: another chain or arm of the molecule; small tags and cut ends)
constant: B1 constant with K189H
B13: equine IgG4 K311F (antibody, part only; not given: variable domains, not shown: another chain or arm of the molecule; small tags and cut ends)
constant: B1 constant with K189F
B14: equine IgG4 K311A (antibody, part only; not given: variable domains, not shown: another chain or arm of the molecule)
constant: B1 constant with K189A
B15: equine IgG4 K311C (antibody, part only; not given: variable domains, not shown: another chain or arm of the molecule; small tags and cut ends)
constant: B1 constant with K189C
B16: equine IgG4 K311E (antibody, part only; not given: variable domains, not shown: another chain or arm of the molecule; small tags and cut ends)
constant: B1 constant with K189E
B17: equine IgG4 K311M (antibody, part only; not given: variable domains, not shown: another chain or arm of the molecule)
constant: B1 constant with K189M
B18: equine IgG1 WT (antibody, part only; not given: Variable domains, not shown: another chain or arm of the molecule)
constant: ASTTAPKVFALAPGCGTTSDSTVALGCLVSGYFPEPVKVSWNSGSLTSGVHTFPSVLQSSGFYSLSSMVTVPASTWTSETYICNVVHAASNFKVDKRIEPIPDNHQKVCDMSKCPKCPAPELLGGPSVFIFPPNPKDTLMITRTPEVTCVVVDVSQENPDVKFNWYMDGVEVRTATTRPKEEQFNSTYRVVSVLRIQHQDWLSGKEFKCKVNNQALPQPIERTITKTKGRSQEPQVYVLAPHPDELSKSKVSVTCLVKDFYPPEINIEWQSNGQPELETKYSTTQAQQDSDGSYFLYSKLSVDRNRWQQGTTFTCGVMHEALHNHYTQKNVSKNPGK
B19: equine IgG1 N434R (antibody, part only; not given: variable domains, not shown: another chain or arm of the molecule)
constant: B18 constant with N324R
B20: equine IgG1 T286H (antibody, part only; not given: variable domains, not shown: another chain or arm of the molecule)
constant: B18 constant with T174H
B21: equine IgG1 Y436Q (antibody, part only; not given: variable domains, not shown: another chain or arm of the molecule)
constant: B18 constant with Y326Q
B22: equine IgG1 Y436S (antibody, part only; not given: Variable domains, not shown: another chain or arm of the molecule)
constant: B18 constant with Y326S
B23: equine IgG1 T286F (antibody, part only; not given: variable domains, not shown: another chain or arm of the molecule)
constant: B18 constant with T174F
B24: equine IgG1 Y436R (antibody, part only; not given: variable domains, not shown: another chain or arm of the molecule)
constant: B18 constant with Y326R
B25: equine IgG1 Y436I (antibody, part only; not given: variable domains, not shown: another chain or arm of the molecule)
constant: B18 constant with Y326I
B26: equine IgG1 Y436D (antibody, part only; not given: variable domains, not shown: another chain or arm of the molecule)
constant: B18 constant with Y326D
B27: equine IgG1 Y436M (antibody, part only; not given: variable domains, not shown: another chain or arm of the molecule)
constant: B18 constant with Y326M
B28: equine IgG1 Y436E (antibody, part only; not given: variable domains, not shown: another chain or arm of the molecule)
constant: B18 constant with Y326E
B29: equine IgG1 Y436L (antibody, part only; not given: variable domains, not shown: another chain or arm of the molecule)
constant: B18 constant with Y326L
B30: equine IgG1 T286D (antibody, part only; not given: variable domains, not shown: another chain or arm of the molecule)
constant: B18 constant with T174D
B31: equine IgG1 N434G (antibody, part only; not given: variable domains, not shown: another chain or arm of the molecule)
constant: B18 constant with N324G
B32: equine IgG1 N434H (antibody, part only; not given: Variable domains, not shown: another chain or arm of the molecule)
constant: B18 constant with N324H
B33: equine IgG1 Y436K (antibody, part only; not given: variable domains, not shown: another chain or arm of the molecule)
constant: B18 constant with Y326K
B34: equine IgG1 Y436N (antibody, part only; not given: variable domains, not shown: another chain or arm of the molecule)
constant: B18 constant with Y326N
B35: equine IgG1 Y436C (antibody, part only; not given: Variable domains, not shown: another chain or arm of the molecule)
constant: B18 constant with Y326C
B36: equine IgG1 N434S (antibody, part only; not given: variable domains, not shown: another chain or arm of the molecule)
constant: B18 constant with N324S
B37: equine IgG1 N434P (antibody, part only; not given: variable domains, not shown: another chain or arm of the molecule)
constant: B18 constant with N324P
B38: equine IgG1 T286G (antibody, part only; not given: variable domains, not shown: another chain or arm of the molecule)
constant: B18 constant with T174G
B39: equine IgG1 N434T (antibody, part only; not given: variable domains, not shown: another chain or arm of the molecule)
constant: B18 constant with N324T
B40: equine IgG1 Y436A (antibody, part only; not given: variable domains, not shown: another chain or arm of the molecule)
constant: B18 constant with Y326A
B41: equine IgG1 Y436V (antibody, part only; not given: variable domains, not shown: another chain or arm of the molecule)
constant: B18 constant with Y326V
B42: equine IgG1 Y436W (antibody, part only; not given: Variable domains, not shown: another chain or arm of the molecule)
constant: B18 constant with Y326W
B43: equine IgG1 N434K (antibody, part only; not given: variable domains, not shown: another chain or arm of the molecule)
constant: B18 constant with N324K
B44: equine IgG1 N434V (antibody, part only; not given: variable domains, not shown: another chain or arm of the molecule)
constant: B18 constant with N324V
B45: equine IgG1 N434M (antibody, part only; not given: Variable domains, not shown: another chain or arm of the molecule)
constant: B18 constant with N324M
B46: equine IgG1 N434Q (antibody, part only; not given: variable domains, not shown: another chain or arm of the molecule)
constant: B18 constant with N324Q
B47: equine IgG1 N434I (antibody, part only; not given: variable domains, not shown: another chain or arm of the molecule)
constant: B18 constant with N324I
B48: equine IgG1 T286E (antibody, part only; not given: variable domains, not shown: another chain or arm of the molecule)
constant: B18 constant with T174E
B49: equine IgG1 Y436H (antibody, part only; not given: variable domains, not shown: another chain or arm of the molecule)
constant: B18 constant with Y326H
B50: equine IgG1 N434Y (antibody, part only; not given: Variable domains, not shown: another chain or arm of the molecule)
constant: B18 constant with N324Y
B51: equine IgG1 Y436F (antibody, part only; not given: variable domains, not shown: another chain or arm of the molecule)
constant: B18 constant with Y326F
B52: equine IgG1 Y436T (antibody, part only; not given: variable domains, not shown: another chain or arm of the molecule)
constant: B18 constant with Y326T
B53: equine IgG1 Y436G (antibody, part only; not given: variable domains, not shown: another chain or arm of the molecule)
constant: B18 constant with Y326G

biological target: equine FcRn (large alpha subunit p51) / equine beta-2-microglobulin complex, biotinylated (equine) (UniProt P30441); assay: SPR (Biacore), pH 6
Chain of UniProt P30441 (P30441 21-118, one chain of several): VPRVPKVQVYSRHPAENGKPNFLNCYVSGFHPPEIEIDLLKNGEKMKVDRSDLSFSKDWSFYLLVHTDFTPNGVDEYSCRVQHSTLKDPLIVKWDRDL

Binder	Kd [nM]
B1	22.5
B2	28
B3	51.2
B4	12.4
B5	25.5
B6	2000
B7	21.9
B8	64.3
B9	16.1
B10	41.1
B11	30.6
B12	35.6
B13	41.8
B14	24.8
B15	23.5
B16	75.2
B17	16.4
B18	22.5
B19	14
B20	22.4
B21	14.6
B22	13.5
B23	18.5
B24	25.6
B25	7.84
B26	28.4
B27	11.1

Binder	Kd [nM]
B28	33.8
B29	12.4
B30	23.9
B31	5.57
B32	4.1
B33	18
B34	23.1
B35	32.8
B36	10
B37	25
B38	15
B39	19.6
B40	20.4
B41	9.06
B42	10.2
B43	17.5
B44	31.2
B45	29
B46	12.8
B47	44.3
B48	21.9
B49	19.1
B50	2.15
B51	12.5
B52	15.2
B53	22
